T1: RecD2 (His-tagged) (Bacillus subtilis, UniProt O34481 1-798)
T1 sequence: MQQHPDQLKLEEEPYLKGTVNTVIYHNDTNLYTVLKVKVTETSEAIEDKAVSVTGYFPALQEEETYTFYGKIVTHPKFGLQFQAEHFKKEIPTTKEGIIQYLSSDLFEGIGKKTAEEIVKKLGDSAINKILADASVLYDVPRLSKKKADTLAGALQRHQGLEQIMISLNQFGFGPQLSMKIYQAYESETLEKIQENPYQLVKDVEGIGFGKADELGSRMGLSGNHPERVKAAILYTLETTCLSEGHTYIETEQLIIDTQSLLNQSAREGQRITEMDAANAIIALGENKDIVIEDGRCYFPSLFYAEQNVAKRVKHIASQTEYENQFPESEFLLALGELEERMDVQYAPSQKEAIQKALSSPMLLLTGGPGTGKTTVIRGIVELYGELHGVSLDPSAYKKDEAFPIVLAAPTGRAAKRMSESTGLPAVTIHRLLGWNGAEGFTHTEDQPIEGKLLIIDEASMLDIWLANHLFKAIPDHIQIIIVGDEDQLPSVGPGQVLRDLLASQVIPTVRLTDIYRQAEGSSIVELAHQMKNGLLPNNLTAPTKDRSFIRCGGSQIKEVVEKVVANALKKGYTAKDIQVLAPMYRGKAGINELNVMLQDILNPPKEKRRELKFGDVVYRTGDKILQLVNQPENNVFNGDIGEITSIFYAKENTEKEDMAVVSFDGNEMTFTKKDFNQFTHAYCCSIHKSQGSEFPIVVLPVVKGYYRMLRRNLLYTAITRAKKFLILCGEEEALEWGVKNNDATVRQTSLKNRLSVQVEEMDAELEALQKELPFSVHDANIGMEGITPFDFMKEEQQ

B1: RecD2 (BsRecD2) (Bacillus subtilis subsp. subtilis str. 168) (protein)
chain: T1 sequence
B2: 80-nt random ssDNA (17-M-80) (ssDNA)
DNA: ACGGCCTAGAACGGCCTAGAACGGCCTAGATCGTGAACCTGCAGGTAAGGGGCTGCTCATCGTAGGTTAGCGTAAATTAG
B3: 60-nt random ssDNA (17-M-60) (ssDNA)
DNA: ACGGCCTAGATCGTGAACCTGCAGGTAAGGGGCTGCTCATCGTAGGTTAGCGTAAATTAG

Legend:
RecD2 (His-tagged) [1] = target: T1, RecD2 (His-tagged); assay: EMSA; settings: 2 mM MgCl2, 1 mM ATPgS, EMSA: 0.25 nM 32P-DNA, buffer B (composition not in material), 2 mM MgCl2 (or 10 mM), 15 min 37 C, then 0.05% glutaraldehyde 15 min 37 C, 8% PAGE …
[2] = substrate: Nc1ncnc2c1ncn2[C@@H]1O[C@H](COP(=O)(O)OP(=O)(O)OP(=O)(O)O)[C@@H](O)[C@H]1O; assay: coupled ATP/NADH spectrophotometric ATPase assay, Michaelis-Menten fit; type: biochemical, Bacillus subtilis; settings: ssDNA cofactor dT80 (3 μM nucleotides), 5 nM RecD2, 2 mM MgCl2, pH 7.5, 37 °C, turnover printed as Vmax per RecD2
RecD2 (His-tagged) [3] = target: T1, RecD2 (His-tagged); assay: EMSA; 2 mM MgCl2, 1 mM ATPgS; EMSA: 0.25 nM 32P-DNA, buffer B (composition not in material), 1 mM ATPgS, 2 mM MgCl2 (or 10 mM), 15 min 37 C, then 0.05% glutaraldehyde 15 min 37 C, 8% PAGE; single-molecule: buffer A (composition not in material); settings: protein: recombinant; tags: 6xHis (not removed); label: 32P
RecD2 (His-tagged) [4] = target: T1, RecD2 (His-tagged); assay: EMSA; 10 mM MgCl2, 1 mM ATPgS; EMSA: 0.25 nM 32P-DNA, buffer B (composition not in material), 1 mM ATPgS, 2 mM MgCl2 (or 10 mM), 15 min 37 C, then 0.05% glutaraldehyde 15 min 37 C, 8% PAGE; single-molecule: buffer A (composition not in material); settings: protein: recombinant; tags: 6xHis (not removed); label: 32P

| Molecule | apparent K (half saturation) (RecD2 (His-tagged) [3]) [nM] | apparent K (half saturation) (RecD2 (His-tagged) [4]) [nM] | further results |
| --- | --- | --- | --- |
| 5'-tailed duplex (30 nt tail) | – | – | K half (RecD2 (His-tagged) [1]): 16 nM |
| 3'-tailed duplex (30 nt tail) | – | – | K half (RecD2 (His-tagged) [1]): 14 nM |
| B1 | – | – | Km [2]: 82 µM; kcat [2]: ~223 s⁻¹ |
| TTTTTTTTTTTTTTTTTTTTTTTTTTTTTT (ssDNA) [poly(dT)30] | ~6 | – | – |
| B2 | 11.1 ± 5.4 | 39.1 ± 15.4 | – |
| CTAATTTACGCTAACCTACGATGAGCAGCC (ssDNA) [30-nt random ssDNA (22-M-30)] | 212 ± 17.7 | 246 ± 20.2 | – |
| B3 | 13.5 ± 4.2 | 44.2 ± 14.1 | – |
